Measurements taken from patent publication CN116262786A (NANJING RONGJIEKANG BIOTECHNOLOGY CO LTD, dated 2023).

B1: 单域抗体2D8 (VHH)
VHH: QVQLVESGGGSVQAGGSLRLSCAASDYTYRRYCMGWFRQAPGKEREKVAAIYLGDGTTYYTDSVKGRFTISQENAKNTIYLQMNNLKPEDTAMYYCAADRSGCSVTWSYSAFEDWGQGTQVTVSS
notes: Prokaryotic (E. coli) VHH from pMECS-VHH; also called VHH8; not shown: tags from vector pMECS (detected with anti-HA, purified on nickel column)
B2: 单域抗体3B3 (VHH)
VHH: QVQLVESGGGSVQAGGSLRLSCAASGYTYRRLSMGWFRQAPGKEREAVGGIYTGESMTYYADSVRGRFTISQDNAQNTVYLQMNSLKPEDTATYYCAATPQFLIGSGLLRPDKYDSWGQGTQVTVSS
notes: Prokaryotic (E. coli) VHH from pMECS-VHH; also called VHH4; not shown: tags from vector pMECS (detected with anti-HA, purified on nickel column)
B3: 单域抗体4B10 (VHH)
VHH: QVQLVESGGGLVQAGGSLRLSCTASGFTFDDYAMGWFRQAPGKEREGVSCISWNGGSTFYADSVKGRFTIVRDNAKNTVYLEMNSLKPEDTAMYYCAALAYCSGGHWSPGDLSGGYWGQGTQVTVSS
notes: Prokaryotic (E. coli) VHH from pMECS-VHH; also called VHH14; not shown: tags from vector pMECS (detected with anti-HA, purified on nickel column)
B4: 单域抗体2E5 (VHH)
VHH: QVQLVESGGGSVQAGGSLRLSCAASGYPYHRVSMGWFRQAPGKEREGVAGIYTGGLYTGGSMTYYADSVKGRFTISQDNARNTVYLQMNSLKPEDTAMYYCAATPQFLIGSGLLRPDKYNSWGQGTQVTVSS
notes: Prokaryotic (E. coli) VHH from pMECS-VHH; also called VHH11; not shown: tags from vector pMECS (detected with anti-HA, purified on nickel column)
B5: 单域抗体3H11 (VHH)
VHH: QVQLVESGGGSVQTGGSPRLSCAVSGHTYSRLSMGWFRQAPGKEREGVAGIYTGGPSGPMTYYADSVKGRFTISQDNAQRTVYLQMNSLKPEDTAMYYCAATPQFLIGSGLLRPDKYNSWGQGTQVTVSS
notes: Prokaryotic (E. coli) VHH from pMECS-VHH; also called VHH15; not shown: tags from vector pMECS (detected with anti-HA, purified on nickel column)
B6: 单域抗体4E11 (VHH)
VHH: QVQLVESGGGSVQAGGSLRLSCAVSGYTYSSNSMGWFRQAPGKEREGVAAIYTGGGSTYYADSVKGRFTISQDNAKNTVYLQMNSLKPEDTAMYYCAAGGPTWYDGSWSRGDEYTYWGQGTQVTVSS
notes: Prokaryotic (E. coli) VHH from pMECS-VHH; also called VHH18; not shown: tags from vector pMECS (detected with anti-HA, purified on nickel column)
B7: 1D11-hFC1 (Fc fusion, human, not shown: a dimerising Fc or GST; small tags and cut ends)
chain: QVQLVESGGGSVQAGGSLRLSCAASGDTYSSACMDWFRQAPGKEREGVAGISSGGSTYYADSVKGRFTISRDNAKNTLYLQMNSLKPEDTAMYYCAARRVGRIPCRTMLPGLQDYWGQGTQVTVSS
notes: domain: Fc区段 (铰链区 Hinge, CH2和CH3区); VHH cloned into vector RJK-V4-hFC; also called VHH-hFc 1D11; 单域抗体1D11的Fc融合抗体
B8: 2D8-hFC1 (Fc fusion, human, not shown: a dimerising Fc or GST; small tags and cut ends)
chain: B1 VHH
notes: domain: Fc区段 (铰链区 Hinge, CH2和CH3区); VHH cloned into vector RJK-V4-hFC; also called VHH-hFc 2D8; 单域抗体2D8的Fc融合抗体
B9: 3B3-hFC1 (Fc fusion, human, not shown: a dimerising Fc or GST; small tags and cut ends)
chain: B2 VHH
notes: domain: Fc区段 (铰链区 Hinge, CH2和CH3区); VHH cloned into vector RJK-V4-hFC; also called VHH-hFc 3B3; 单域抗体3B3的Fc融合抗体
B10: 4B10-hFC1 (Fc fusion, human, not shown: a dimerising Fc or GST; small tags and cut ends)
chain: B3 VHH
notes: domain: Fc区段 (铰链区 Hinge, CH2和CH3区); VHH cloned into vector RJK-V4-hFC; also called VHH-hFc 4B10; 单域抗体4B10的Fc融合抗体
B11: 2E5-hFC1 (Fc fusion, human, not shown: a dimerising Fc or GST; small tags and cut ends)
chain: B4 VHH
notes: domain: Fc区段 (铰链区 Hinge, CH2和CH3区); VHH cloned into vector RJK-V4-hFC; also called VHH-hFc 2E5; 单域抗体2E5的Fc融合抗体
B12: 3H11-hFC1 (Fc fusion, human, not shown: a dimerising Fc or GST; small tags and cut ends)
chain: B5 VHH
notes: domain: Fc区段 (铰链区 Hinge, CH2和CH3区); VHH cloned into vector RJK-V4-hFC; also called VHH-hFc 3H11; 单域抗体3H11的Fc融合抗体
B13: 4E11-hFC1 (Fc fusion, human, not shown: a dimerising Fc or GST; small tags and cut ends)
chain: B6 VHH
notes: domain: Fc区段 (铰链区 Hinge, CH2和CH3区); VHH cloned into vector RJK-V4-hFC; also called VHH-hFc 4E11; 单域抗体4E11的Fc融合抗体
B14: 单域抗体1D11 (VHH)
VHH: B7 chain
notes: Prokaryotic (E. coli) VHH from pMECS-VHH; also called VHH2; not shown: tags from vector pMECS (detected with anti-HA, purified on nickel column)

Each binder was assayed against T1, 人源重组FOLR1蛋白 (人源FOLR1重组胞外结构域蛋白) (human, UniProt P15328 25-233) (assay: ELISA, coated FOLR1 1 μg/mL, purified prokaryotic VHH titrated from 2 μg/mL, anti-HA-HRP).
T1 construct: range 25-233; a tag is not mentioned; also called FOLR1重组蛋白; 人FOLR1
T1 sequence (P15328 25-233 limits assumed): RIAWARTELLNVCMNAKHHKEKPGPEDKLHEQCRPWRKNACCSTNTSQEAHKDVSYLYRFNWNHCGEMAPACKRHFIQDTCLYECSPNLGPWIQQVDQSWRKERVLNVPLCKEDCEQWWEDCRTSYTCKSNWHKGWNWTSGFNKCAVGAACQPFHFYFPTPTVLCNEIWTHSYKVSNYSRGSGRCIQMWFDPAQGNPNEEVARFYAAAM

binding result | Binder
binds | B1
binds | B2
binds | B3
binds | B4
binds | B5
binds | B6

What follows are binders tested against T1, 人源重组FOLR1蛋白 (人源FOLR1重组胞外结构域蛋白) (assay: ELISA, coated FOLR1 of each species 1 μg/mL, VHH-hFc titrated from 2 μg/mL, goat anti-human IgG-HRP).

binding result | Binder
binds | B7
binds | B8
binds | B9
binds | B10
binds | B11
binds | B12
binds | B13

These binders were tested against T2, 小鼠FOLR1 (小鼠 (mouse), UniProt P35846 25-232, limits assumed) in the same assay as above.
T2 construct: also called mouse FOLR1
T2 sequence (P35846 25-232 limits assumed): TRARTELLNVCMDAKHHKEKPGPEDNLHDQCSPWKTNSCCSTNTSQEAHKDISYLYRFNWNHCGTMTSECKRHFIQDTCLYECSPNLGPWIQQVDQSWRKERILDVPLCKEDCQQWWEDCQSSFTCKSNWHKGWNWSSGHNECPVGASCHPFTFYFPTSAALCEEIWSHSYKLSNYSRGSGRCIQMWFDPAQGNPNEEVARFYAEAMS

binding result | Binder
binds | B7
binds | B8
binds | B9
binds | B10
binds | B11
binds | B12
binds | B13

What follows are binders tested against T1, 人源重组FOLR1蛋白 (人源FOLR1重组胞外结构域蛋白) (assay: ELISA of crude periplasmic extract on coated FOLR1 recombinant protein, anti-HA-HRP; positive = OD more than 5 times control).

binding result | Binder
binds | B14
